These results are taken from publication PMC9897197 (Brain, 2022).

One series in a line: Brain uptake. Conditions: ISCP, 13.5-month-old female non-Tg vs 3xTg-AD mice; unpaired t-test.
The target of another series is INSRβ (Mus musculus, UniProt P15208). In words: Phosphorylation of INSRβ. The settings on record: 6-month-old C57Bl6 mice. It is filed as in vivo.
Chain of INSRβ (P15208 28-746 limits assumed): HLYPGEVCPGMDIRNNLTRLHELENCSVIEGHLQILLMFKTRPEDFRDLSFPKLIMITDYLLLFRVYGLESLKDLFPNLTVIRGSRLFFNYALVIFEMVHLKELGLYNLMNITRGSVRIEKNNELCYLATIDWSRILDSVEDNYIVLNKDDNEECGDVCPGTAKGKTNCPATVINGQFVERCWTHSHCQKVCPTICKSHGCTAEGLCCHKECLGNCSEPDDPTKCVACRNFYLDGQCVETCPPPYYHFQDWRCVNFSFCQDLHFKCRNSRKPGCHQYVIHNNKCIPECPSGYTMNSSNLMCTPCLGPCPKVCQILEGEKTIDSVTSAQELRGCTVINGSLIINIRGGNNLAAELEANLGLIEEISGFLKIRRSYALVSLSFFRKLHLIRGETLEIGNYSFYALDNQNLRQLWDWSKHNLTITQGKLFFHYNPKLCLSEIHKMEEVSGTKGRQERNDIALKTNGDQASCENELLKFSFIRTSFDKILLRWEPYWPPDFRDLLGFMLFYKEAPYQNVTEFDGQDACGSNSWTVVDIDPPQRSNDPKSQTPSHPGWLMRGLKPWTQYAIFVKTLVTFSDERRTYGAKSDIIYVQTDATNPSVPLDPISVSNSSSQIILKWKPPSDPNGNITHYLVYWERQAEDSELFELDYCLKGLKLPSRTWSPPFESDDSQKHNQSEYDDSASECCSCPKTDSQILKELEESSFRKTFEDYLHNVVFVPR
Chain of INSRβ (P15208 753-1372 limits assumed): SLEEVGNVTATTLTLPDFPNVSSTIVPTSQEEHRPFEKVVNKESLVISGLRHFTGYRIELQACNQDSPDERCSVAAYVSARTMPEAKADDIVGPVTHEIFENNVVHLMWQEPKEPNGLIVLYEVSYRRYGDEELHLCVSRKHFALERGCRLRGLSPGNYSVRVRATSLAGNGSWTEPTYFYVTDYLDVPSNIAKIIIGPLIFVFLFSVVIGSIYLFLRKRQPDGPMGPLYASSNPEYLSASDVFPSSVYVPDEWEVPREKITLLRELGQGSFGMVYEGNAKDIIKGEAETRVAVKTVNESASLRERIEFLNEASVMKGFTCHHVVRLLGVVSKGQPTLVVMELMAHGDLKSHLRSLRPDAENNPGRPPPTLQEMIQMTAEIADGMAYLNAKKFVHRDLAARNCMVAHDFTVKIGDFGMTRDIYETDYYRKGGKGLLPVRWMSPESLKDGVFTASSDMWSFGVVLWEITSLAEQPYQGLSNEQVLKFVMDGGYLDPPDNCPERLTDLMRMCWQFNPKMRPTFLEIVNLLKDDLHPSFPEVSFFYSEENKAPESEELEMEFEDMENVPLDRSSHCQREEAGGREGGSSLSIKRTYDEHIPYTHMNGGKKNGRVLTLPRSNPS

With “125I-insulin: radiolabelled insulin used for transport quantification”, the “impact of 3xTg-AD transgenes on 125I-insulin transport” value in the series “Brain uptake” is “no significant impact”.

On to insulin, for which, in the series with INSRβ (ISCP 120 s, insulin 350 nM, western blot), the “phosphorylation of INSRβ in microvessel-depleted parenchymal fraction” value was “no trace was detected”. In addition, the “time to INSRβ phosphorylation after intracarotid administration” value with INSRβ (insulin 0.4 mg/kg or 350 nM, ISCP) is at most 120 s.
